From the RNAGym collection of RNA variant scans (doi:10.7554/elife.90254) come the findings set out here.

Sequences and labels used below:
B1: LINE1-full (parent)
chain: UACGUAGGUGGUUUUCCCCUGAUAGUGCUAAGGGGGCCUGGAAGUUUGGACUGGGCAGAGCUCAACACAGCGUGGCAAAGUGGCUGUGGCUAGACUGCCUCUCUGGAUUCCUCGUCACUCAGCAGGGCAUCUCUGAGAGAAAUGCC

This data set covers variants of B1. Put plainly: self-cleavage, relative activity (ratio to wild type); higher = more cleavage; in vitro, sequencing; the parent is a self-cleaving ribozyme.
UACGCAGGUGGUUUUCCCCUGAUAGUGCUAAGGGGGCCUGGAAGUUUGGACUGGGCAGAGCUCAACACAGCGUGGCAAAGUGGCUGUGGCUAGACUGCCUCUCUGGAUUCCUCGUCACUCAGCAGGGCAUCUCUGAAAGAAAUGCC [U5C G137A]: the self-cleavage was 1.38.
Regarding UACGCAGGUGGUUUACCCCUGAUAGUGCUAAGGGGGCCUGGAAGUUUGGACUGGGCAGAGCUCAACACAGCGUGGCAAAGUGGCUGUGGCUAGACUGCCUCUCUGGAUUCCUCGUCACUCAGCAGGGCAUCUCUGAGAGAAAUGCC [U5C U15A], the self-cleavage was determined as 0.63.
For the variant UACGCAGGUGGUUUUCCCCUGAUAGUGCUAAGGGGGCCUGGAAGUUUGGACUGGGCAGAGCUCAACACAGCGUGGCAAAGUGGCUGUGGCUAGACUGCCUCUCUGGAUUACUCGUCACUCAGCAGGGCAUCUCUGAGAGAAAUGCC [U5C C110A], the self-cleavage was determined as 1.19.
In the case of UACGCAGGUGGUUUUCCCCUGAUAGUGCUAAGGGGGCCUGGAAGUUUAGACUGGGCAGAGCUCAACACAGCGUGGCAAAGUGGCUGUGGCUAGACUGCCUCUCUGGAUUCCUCGUCACUCAGCAGGGCAUCUCUGAGAGAAAUGCC [U5C G48A] it was 0.45; in that of UACGCAGGUGGUUUUCCCCUGAUAGUGCUAAGGGGGCCUGGAAGUUUGGACUGGGCAGAGCUCAACACAGCGUGGCAAAGUGGCUGUGGCUAGACUGCCUCUCUGGAUUCCUCGUCACUUAGCAGGGCAUCUCUGAGAGAAAUGCC [U5C C120U], 1.26; in that of UACGCAGGUGGUUUUCCCCUGAUAGUGCUAAGGGGGCCUGGAAGUUUGGACUGGGCAGAGCUCAACACAGCGUAGCAAAGUGGCUGUGGCUAGACUGCCUCUCUGGAUUCCUCGUCACUCAGCAGGGCAUCUCUGAGAGAAAUGCC [U5C G74A], 1.19.
For UACGCAGGUGGUUUUCCCCUGAUAGUGCUAAGGGGGCCUGGAAGUUUGGACUGGGCAGAGCUCAACACAGCGUGGCAAAGUGGCUGUGGCUAGACUGCCUCUCUGGAUUCCUCGUCACUCAGCAGGGUAUCUCUGAGAGAAAUGCC [U5C C128U], the self-cleavage was 1.53.
For UACGCAGGUGGUUUUCCCCUGAUAGUGCUAAGGGGGCCUGGAAGUUUGGACUGGGCAGAGCUCAACACAGCGUGGCAAAGUGGCUGUGGCUAGACUGCCUCUCUGGAUUCUUCGUCACUCAGCAGGGCAUCUCUGAGAGAAAUGCC [U5C C111U], the self-cleavage turned out to be 0.85.
On to UACGCAGAUGGUUUUCCCCUGAUAGUGCUAAGGGGGCCUGGAAGUUUGGACUGGGCAGAGCUCAACACAGCGUGGCAAAGUGGCUGUGGCUAGACUGCCUCUCUGGAUUCCUCGUCACUCAGCAGGGCAUCUCUGAGAGAAAUGCC [U5C G8A], for which the self-cleavage is 0.24.
On to UACGCAGGUGGUUCUCCCCUGAUAGUGCUAAGGGGGCCUGGAAGUUUGGACUGGGCAGAGCUCAACACAGCGUGGCAAAGUGGCUGUGGCUAGACUGCCUCUCUGGAUUCCUCGUCACUCAGCAGGGCAUCUCUGAGAGAAAUGCC [U5C U14C], for which the self-cleavage is 0.99.
As for UACGCAGGUGGUUUUCCCCUGAUAGUGCUAAGGGGGCCUAGAAGUUUGGACUGGGCAGAGCUCAACACAGCGUGGCAAAGUGGCUGUGGCUAGACUGCCUCUCUGGAUUCCUCGUCACUCAGCAGGGCAUCUCUGAGAGAAAUGCC [U5C G40A], the self-cleavage was determined as 0.42.
As to UACGCAGGUGGUUUUCCCCUGAUAGUGCUAAGGGGGCCUGGAAGUUUGGACUGGGCAGAGCUCAACACAGCGUGACAAAGUGGCUGUGGCUAGACUGCCUCUCUGGAUUCCUCGUCACUCAGCAGGGCAUCUCUGAGAGAAAUGCC [U5C G75A], the self-cleavage is 1.15.
In the case of UACGCAGGUGGUUUUCCCCUGAUAGUGCUAAGGGGGCCUGUAAGUUUGGACUGGGCAGAGCUCAACACAGCGUGGCAAAGUGGCUGUGGCUAGACUGCCUCUCUGGAUUCCUCGUCACUCAGCAGGGCAUCUCUGAGAGAAAUGCC [U5C G41U] it was 1.03; in that of UACGCAGGUGGUUUUCCCCUGAUAGUGCUAAGGGUGCCUGGAAGUUUGGACUGGGCAGAGCUCAACACAGCGUGGCAAAGUGGCUGUGGCUAGACUGCCUCUCUGGAUUCCUCGUCACUCAGCAGGGCAUCUCUGAGAGAAAUGCC [U5C G35U], 1.19.
On to UACGCAGGUGGUUUUCCCCUGAUAGUGCUAAGGGGGCCUGGAAGUUUGGACUGGGCAGAGCUCAACACAGCGUGGCAAAGUGGCUGUGGCUAGACUGCCUCUCUGGAUUCCUCGUCACUCAGCAGGCCAUCUCUGAGAGAAAUGCC [U5C G127C], for which the self-cleavage worked out at 1.12.
For UACGCAGGUGGUUUUCCCCUGAUAGUGCUAAGGGGGCCUGGAAGUUUGGACUGGGCAGAACUCAACACAGCGUGGCAAAGUGGCUGUGGCUAGACUGCCUCUCUGGAUUCCUCGUCACUCAGCAGGGCAUCUCUGAGAGAAAUGCC [U5C G60A] the value was 0.08; for UACGCAGGUGGUUUUCCCCUGAUAGUGCUAAGGGGCCCUGGAAGUUUGGACUGGGCAGAGCUCAACACAGCGUGGCAAAGUGGCUGUGGCUAGACUGCCUCUCUGGAUUCCUCGUCACUCAGCAGGGCAUCUCUGAGAGAAAUGCC [U5C G36C], 1.25.
For UACGCAGGUGGUUUUCCCCUGAUAGUGCUAAGGUGGCCUGGAAGUUUGGACUGGGCAGAGCUCAACACAGCGUGGCAAAGUGGCUGUGGCUAGACUGCCUCUCUGGAUUCCUCGUCACUCAGCAGGGCAUCUCUGAGAGAAAUGCC [U5C G34U] the value was 0.82; for UACGCAGGUGGUCUUCCCCUGAUAGUGCUAAGGGGGCCUGGAAGUUUGGACUGGGCAGAGCUCAACACAGCGUGGCAAAGUGGCUGUGGCUAGACUGCCUCUCUGGAUUCCUCGUCACUCAGCAGGGCAUCUCUGAGAGAAAUGCC [U5C U13C], 0.87; for UACGCAGGUGGUUUUCCCCUGAUAGUGCUAAGGGGGCCUGGAAGUUUGGACUGGGCAGAGCUCAACACAGCGUGGCAAAGUGGUUGUGGCUAGACUGCCUCUCUGGAUUCCUCGUCACUCAGCAGGGCAUCUCUGAGAGAAAUGCC [U5C C84U], 0.18.
